Read-outs that look alike come from different tables or passages of the source.
Columns and labels:
Dis3L2 wild type [1] = target: T1, Dis3L2 wild type (mouse, UniProt Q8CI75 1-870); assay: filter binding
T1 sequence: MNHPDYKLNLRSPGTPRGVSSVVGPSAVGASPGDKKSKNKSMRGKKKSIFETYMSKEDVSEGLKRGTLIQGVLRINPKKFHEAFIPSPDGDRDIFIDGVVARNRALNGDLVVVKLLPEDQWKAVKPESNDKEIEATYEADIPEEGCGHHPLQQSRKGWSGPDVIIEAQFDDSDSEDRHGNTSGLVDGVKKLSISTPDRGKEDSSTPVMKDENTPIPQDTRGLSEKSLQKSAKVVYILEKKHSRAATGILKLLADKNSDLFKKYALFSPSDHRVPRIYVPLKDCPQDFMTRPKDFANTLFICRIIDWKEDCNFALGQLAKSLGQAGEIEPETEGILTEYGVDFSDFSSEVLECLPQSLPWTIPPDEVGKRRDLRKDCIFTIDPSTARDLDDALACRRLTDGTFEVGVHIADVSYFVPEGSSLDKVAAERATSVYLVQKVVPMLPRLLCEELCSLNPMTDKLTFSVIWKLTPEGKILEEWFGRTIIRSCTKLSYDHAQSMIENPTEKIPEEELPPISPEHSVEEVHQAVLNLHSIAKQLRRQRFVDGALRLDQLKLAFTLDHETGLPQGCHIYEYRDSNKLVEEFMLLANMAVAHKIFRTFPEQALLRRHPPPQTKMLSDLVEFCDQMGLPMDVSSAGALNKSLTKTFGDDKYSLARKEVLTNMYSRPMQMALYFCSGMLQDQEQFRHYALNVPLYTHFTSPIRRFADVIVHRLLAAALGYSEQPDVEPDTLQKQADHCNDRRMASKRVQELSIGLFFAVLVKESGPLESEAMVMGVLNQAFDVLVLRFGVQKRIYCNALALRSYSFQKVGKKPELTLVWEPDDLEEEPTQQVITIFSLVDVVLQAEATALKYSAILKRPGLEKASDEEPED

Dis3L2 wild type [2] = target: T1, Dis3L2 wild type; assay: filter binding; remark: listed apart in the source
[3] = target: T2, Dis3L2 truncated D389N (crystal construct) (mouse, UniProt Q8CI75 37-857, D389N;del148-169;del194-221); assay: X-ray crystallography
T2 sequence: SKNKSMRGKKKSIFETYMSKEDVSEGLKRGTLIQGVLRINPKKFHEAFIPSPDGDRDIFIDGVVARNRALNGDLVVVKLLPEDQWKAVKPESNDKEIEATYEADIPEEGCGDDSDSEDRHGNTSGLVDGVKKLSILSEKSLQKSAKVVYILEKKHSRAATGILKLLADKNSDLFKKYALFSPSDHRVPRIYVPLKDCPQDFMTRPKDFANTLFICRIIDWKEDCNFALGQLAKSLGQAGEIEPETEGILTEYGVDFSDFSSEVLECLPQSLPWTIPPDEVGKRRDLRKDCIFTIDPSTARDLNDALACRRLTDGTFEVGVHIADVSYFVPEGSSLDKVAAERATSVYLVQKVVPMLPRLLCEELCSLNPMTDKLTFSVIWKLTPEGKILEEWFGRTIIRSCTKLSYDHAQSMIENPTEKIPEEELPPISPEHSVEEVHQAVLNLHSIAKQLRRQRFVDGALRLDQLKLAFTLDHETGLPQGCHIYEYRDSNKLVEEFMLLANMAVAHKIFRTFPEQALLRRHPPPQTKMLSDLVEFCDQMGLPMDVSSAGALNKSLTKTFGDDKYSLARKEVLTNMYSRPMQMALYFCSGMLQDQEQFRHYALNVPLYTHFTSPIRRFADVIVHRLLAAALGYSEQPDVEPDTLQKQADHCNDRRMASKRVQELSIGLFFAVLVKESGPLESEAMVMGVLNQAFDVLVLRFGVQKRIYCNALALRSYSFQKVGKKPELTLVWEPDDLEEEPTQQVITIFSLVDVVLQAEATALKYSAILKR

Dis3L2 wild type [4] = target: T1, Dis3L2 wild type; assay: filter binding; remark: listed apart in the source
Dis3L2 wild type [5] = target: T1, Dis3L2 wild type; assay: filter binding; remark: listed apart in the source

B1: A15 (ssRNA)
RNA: AAAAAAAAAAAAAAA
binding signal (Dis3L2 wild type [1]): > 200 fold weaker than U15

B2: U15 (ssRNA)
RNA: UUUUUUUUUUUUUUU
binding result (Dis3L2 wild type [2]): binds

B3: U13 (ssRNA)
RNA: UUUUUUUUUUUUU
binding result [3]: binds

B4: C15 (ssRNA)
RNA: CCCCCCCCCCCCCCC
binding signal (Dis3L2 wild type [1]): > 200 fold weaker than U15

B5: deoxyU15 (ssDNA)
DNA: UUUUUUUUUUUUUUU
modifications: 2'-deoxyuridine at all positions
binding result (Dis3L2 wild type [4]): binds

B6: pre-let-7 (pre-let7a1) (structured_RNA)
RNA: UGAGGUAGUAGGUUGUAUAGUUUUAGGGUCACACCCACCACUGGGAGAUAACUAUACAAUCUACUGUCUUUC
binding signal (Dis3L2 wild type [5]): 10 fold weaker than pre-let-7-U15
